According to patent US20200247894A1 (Regeneron, published 2020):

T1: human IL-2Rγ endogenously expressed on NK-92 and Jurkat cells (human, UniProt P31785 23-369)
T1 construct: whole, on cells; on cells it stands with the other receptor subunits of the cell line; also called IL-2Rg; CD132
T1 sequence (looked up): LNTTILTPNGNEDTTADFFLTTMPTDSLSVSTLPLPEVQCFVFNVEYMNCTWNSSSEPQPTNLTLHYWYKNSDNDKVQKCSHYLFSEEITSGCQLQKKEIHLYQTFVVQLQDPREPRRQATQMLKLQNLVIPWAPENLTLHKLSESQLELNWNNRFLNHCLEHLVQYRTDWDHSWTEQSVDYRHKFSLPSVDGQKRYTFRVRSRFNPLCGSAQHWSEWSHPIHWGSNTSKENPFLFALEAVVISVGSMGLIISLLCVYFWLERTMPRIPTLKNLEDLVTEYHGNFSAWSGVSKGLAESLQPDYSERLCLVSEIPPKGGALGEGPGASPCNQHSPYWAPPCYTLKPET

T2: mouse IL-2Rγ endogenously expressed on MC/9 cells (mouse, UniProt P34902 23-369)
T2 construct: whole, on cells
T2 sequence (looked up): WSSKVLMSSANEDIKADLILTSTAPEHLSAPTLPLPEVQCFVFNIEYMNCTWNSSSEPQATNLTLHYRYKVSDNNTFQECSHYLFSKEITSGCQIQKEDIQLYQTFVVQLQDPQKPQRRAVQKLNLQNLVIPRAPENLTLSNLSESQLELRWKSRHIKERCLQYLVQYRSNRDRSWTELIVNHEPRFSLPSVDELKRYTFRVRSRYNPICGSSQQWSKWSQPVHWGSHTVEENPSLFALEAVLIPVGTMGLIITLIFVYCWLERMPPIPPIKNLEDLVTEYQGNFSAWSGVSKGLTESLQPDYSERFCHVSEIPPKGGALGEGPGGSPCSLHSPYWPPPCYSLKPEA


What was measured:
[1] = molecular target: T1, human IL-2Rγ endogenously expressed on …; test: flow cytometry, 10 ug/ml antibody, Jurkat cells (endogenous human IL-2Rg)
Procedure: (§1) For flow cytometry analyses, the cells were pre-incubated with mouse IgG at 100 μg/ml for 15 minutes at room temperature (RT) to block the binding of the antibodies to Fc receptors. […] Cells were washed, fixed using BD CytoFix™ (BD biosciences, #554655) and analyzed on an IQue® (Intellicyt®) Flow Cytometer or Accuri Flow cytometer (BD). […] The results were analyzed using ForeCyt® (IntelliCyt®) software to determine the geometric means of fluorescence (MFI) for viable cells. Binding ratios were calculated by normalizing the MFI of the test sample by the MFI of the unstained sample.

[2] = molecular target: T1, human IL-2Rγ endogenously expressed on …; test: flow cytometry, 10 ug/ml antibody, NK-92 cells (endogenous human IL-2Rg)
Procedure: as §1

[3] = molecular target: T2, mouse IL-2Rγ endogenously expressed on …; test: flow cytometry, 10 ug/ml antibody, MC/9 cells (endogenous mouse IL-2Rg)
Procedure: as §1

Row | Binder | Binding Ratio (Sample over unstained MFIs) [1] | Raw MFI [1] [MFI] | Binding Ratio (Sample over unstained MFIs) [2] | Raw MFI [2] [MFI] | Binding Ratio (Sample over unstained MFIs) [3] | Raw MFI [3] [MFI]
1 | H4H12913P2 (antibody, human IgG4 S228P, kappa, V domains shown, fully human anti-IL2Rg antibody, human IgG4) VH: EVQLVESGGGVVRPGGSLRLSCAASGFTFDDYGMSWVRQAPGKGLEWISSINRNGGSADYADSVKGRFTISRDNAKNSLFLQMSSLRAEDTALYHCASGEFRFDYWGQGTLVTVSS VL: not shown | 5 | 472 | 33 | 4910 | 1 | 178
2 | H4H12874P (antibody, human IgG4 S228P, kappa, V domains shown, fully human anti-IL2Rg antibody, human IgG4) VH: QVQLVESGGGVVQPGRSLRLSCAASGFNFRNFGMHWVRQAPGKGLEWVAGILYDGSSKYYADSVKDRFTISRDNSKNTLFLQMNSLRAEDTAMYYCAKEEDTAMVPFDSWGPGTLVTVSS VL: DIQLTQSPSFLSASVGDRVTITCWASQGISSYLAWYQQKPGKAPTLLIYAASTLQSGVPSRFSGSGSGTEFTLTISSLQPEDFASYYCQQLKSYPLTFGGGTKVEIKR | 6 | 507 | 44 | 6580 | 1 | 202
3 | H4H12900P (antibody, human IgG4 S228P, kappa, V domains shown, fully human anti-IL2Rg antibody, human IgG4) VH: QVQLVESGGGLVKPGGSLRLSCEASGFTFNDFYMTWIRQAPGKGLEWIAYISKSGDKMRYADSVKGRFSTSRDNAKNSLSLQMNSLRAEDTAVYYCARFYGDIWGQGTLVTVSS VL: DIQLTQSPSFLSASVGDRVTITCWASQDISSFLVWYQQKPGKAPNLLIYAASALQSGVPSRFSGSGSGTEFTLTISSLQPEDFASYYCEQLNNYPWTFGQGTKVEIKR | 1 | 110 | 28 | 4200 | 1 | 128
4 | H4H12899P (antibody, human IgG4 S228P, kappa, V domains shown, fully human anti-IL2Rg antibody, human IgG4) VH: QVQLVESGGDLVKPGGSLRLSCATSGFTFSDFYMTWIRQAPGKGLEWISYISNSGSIVKYADSVKGRFTISRDNAKNSLYLQMNSLRAEDTAIYYCARFYGDRWGQGTLVTVSS VL: DIQLTQSPSFLSASVGDRVTITCWASQGISTFLAWYQQKPGKAPKLLIYAASTLQSGVPSRFSGSGSGTDFTLTISSLQPEDFATYHCQQLNNYPWTFGQGTKVEIKR | 1 | 114 | 18 | 2670 | 1 | 167
5 | H4H12863P (antibody, human IgG4 S228P, kappa, V domains shown, fully human anti-IL2Rg antibody, human IgG4) VH: QVQLVESGGGVVQPGRSLRLSCTASGFTFRSYDMYWVRQAPGKGLEWVSVITYDGNNKYYADSVKGRFTISRDNSKNTLFLQMSSLRPEDTAVYYCAKRGLIWVGESFDYWGQGTLVTVSS VL: DIQMTQSPSTLSASVGDRVTITCRASQSINSWLAWYQQKPGKAPNLLIYKASSLESGVPSRFSGSGSGTEFTLTISSLQPDDFATYYCQQYKSYSWTFGQGTKVEIKR | 13 | 1170 | 87 | 13000 | 1 | 185
6 | H4H12889P (antibody, human IgG4 S228P, kappa, V domains shown, fully human anti-IL2Rg antibody, human IgG4; also called REGN7257) VH: EVQLVESGGGLVQPGGSLRLSCAASGFIFSSYEMHWVRQAPGKGLEWISYISSSGTTIYYADSVKGRFTISRDNAKNSLYLHMNSLRAEDTAVYYCTRARITGTFDVFDIWGQGTMVTVSS VL: DIQMTQSPSSLSASVGDRVTITCRASQSISSYLNWYQQKPGKAPKLLIFAASNLQSGVPSRFSGSRSGTDFTLTISSLQPEDFATYYCQQNYNIPYTFGQGTKLEIKR | 19 | 1660 | 94 | 14100 | 1 | 91
7 | H4H12886P (antibody, human IgG4 S228P, kappa, V domains shown, fully human anti-IL2Rg antibody, human IgG4) VH: EVQLVESGGGLVKPGGSLRLSCAASGFTFSTAWMSWVRQSPGRGLEWVGRMKSKTDGGTTFYAAPVKGRFTISRDDSKNTLYLQMNSLKTEDTAVYYCTTGLVPAFYKYYGVDVWGQGTTVTVSS VL: DIQMTQSPSSLSASVGDRITITCQASQDITNYLNWYQQKPGKAPNLLIYDASNLVTGVPSRFSGSGSGTDFTFTILSLQPEDIATYYCQQYDSLLTFGPGTKVDIKR | 6 | 488 | 32 | 4720 | 1 | 185
8 | H4H12884P (antibody, human IgG4 S228P, kappa, V domains shown, fully human anti-IL2Rg antibody, human IgG4) VH: QVQLQESGPGLVKPSQTLSLTCTVSGGSISSGGYYWSWIRQHPGKGLEWIGFIYYSGKTYYNPSLKSRLTISVDTSKSQFSLKLRSVTAADTAVYYCARLGYTNSAGWFDPWGQGTLVTVSS VL: DIQMTQSPSSLSASVGDRVTITCRASQSISSYLNWYQQKPGKAPNLLIYAASSLQSGVPSRFSGSGSGTDFTLTISSLQPEDLATYYCQQSYTTPFTFGPGTKVDIKR | 16 | 1420 | 90 | 13500 | 1 | 172
9 | H4H12890P (antibody, human IgG4 S228P, kappa, V domains shown, fully human anti-IL2Rg antibody, human IgG4) VH: EVQLVESGGGLVQPGGSLRLSCAASGFTFNNYAMHWVRQAPGKGLEYVSSISSSGGSTYYEDSVKGRFTISRDNSKNTLYLQMGSLRAEDMAVYYCARSFYGSGTYYDTFDMWGQGTMVTVSS VL: DIQMTQSPSSLSASIGDRVTITCRASQSISRYLNWYQQKPGKAPKLLIYAASSLQSGVPSRFSASGSGTDFTLTISSLQPEDFATYYCQQSYSTPFTFGQGTKLEIKR | 6 | 500 | 30 | 4570 | 1 | 170
10 | H4H12871P (antibody, human IgG4 S228P, kappa, V domains shown, fully human anti-IL2Rg antibody, human IgG4; also called REGN9434) VH: QVQLQESGPGLVKPSQTLSLTCTVSGGSITSGGYYWSWIRQYPGQGLEWIGYIYYSGKTYYNPSFTSRITISVDTSKKQFSLKMSSVTAADTAVYYCARAGFTSSNGWFDPWGQGTLVTVSS VL: DIQMTQSPSSLSASVGDRVTITCRASQNIRSYLNWYQQKPGKAPKLLIYSASSLQSGVPSRFSGSGSGTDFTLTISSLQPEDFPTYYCQQTYSSPWTFGPGTKVEIKR | 18 | 1620 | 92 | 13700 | 1 | 184

Now from value to binder:

Row | Binding Ratio (Sample over unstained MFIs) [1] | Raw MFI [1] [MFI] | Binding Ratio (Sample over unstained MFIs) [2] | Raw MFI [2] [MFI] | Binding Ratio (Sample over unstained MFIs) [3] | Raw MFI [3] [MFI] | Binder
11 | 1 | 86 | 17 | 2540 | 1 | 154 | H4H12908P (antibody, human IgG4 S228P, kappa, V domains shown, fully human anti-IL2Rg antibody, human IgG4) VH: EVQLVESGGRLVQPGGSLRLSCEASGFTFSNYGMTWVRQAPGKGLEWVSVISGSDNRKYYAESVKGRFTISRDNSKNTLYLQMNSLRAEDTAVYYCAKLGYSRSSKDFYYGMDVWGQGTTVTVSS VL: not shown
12 | 4 | 315 | 23 | 3490 | 1 | 191 | H4H12927P2 (antibody, human IgG4 S228P, kappa, V domains shown, fully human anti-IL2Rg antibody, human IgG4) VH: EVQLVESGGGVVRPGGSLRLSCATSGFTFDDYGMSWVRQVPGKGLEWVSSVNRNGGTTDYADSVKGRFTISRDNAKRSLFLQMNSLRAEDTALYHCATGELFFDYWGQGTLVTVSS VL: not shown
13 | 1 | 104 | 2 | 231 | 1 | 192 | H4H12924P2 (antibody, human IgG4 S228P, kappa, V domains shown, fully human anti-IL2Rg antibody, human IgG4) VH: EVQLVESGGGLVQPGRSLRLSCAASGFTLEDYAMHWVRQAPGKGLEWVSGISWNRGSTGYADSVKGRFTISRDNAKNSLYLQMTSLRAEDTALYYCAKGFYSMDVWGQGTTVTVSS VL: not shown
14 | 18 | 1570 | 84 | 12500 | 1 | 187 | H4H12922P2 (antibody, human IgG4 S228P, kappa, V domains shown, fully human anti-IL2Rg antibody, human IgG4; also called REGN7256) VH: QVQLVESGGGVVKPGGSLRLSCAASGFTFSNSGIHWVRQAPGKGLEWVALISYAGSNKYYADSVKGRFTISRDNSKNTLSLQMNSLRAEDTAVYYCAKEVWTGTYDSFDMWGRGTMVTVSS VL: not shown
